Reference: patent US20240166738A1 (Alector, published 2024)
Positions count from the first letter of the chain named.

B1: TM-17 (antibody, V domains shown)
VH: QVQLQQSGAELIRPGTSVKVSCKASGYAFTDYLIEWVKQRPGQGLEWIGVINPGSGGTNYNEKFKGKAKLTADKSSSTAYMQLSSLTSEDSAVYFCVRSSYGVYVAYPMDYWGQGTSVTVSS
VL: DIQMTQSPSSLSASLGERVSLTCRASQDIGSNLNWLQQEPDGTIKRLIYATSSLDSGVPKRFSGSRSGSDYSLTISSLESEDFVDYYCLQYASSPRTFGGGTKLEIK
B2: TM-41 (antibody, V domains shown)
VH: EVQLQQSGAELVKPGASIKLSCTASGFNIKDCYMHWVKQRTEQGLEWIGRIDPEDGTTNFAPKFQDRATITADTSSNTAYLQLTSLTSEDTAVYYCAREWDSGAYWGQGTLVTVSA
VL: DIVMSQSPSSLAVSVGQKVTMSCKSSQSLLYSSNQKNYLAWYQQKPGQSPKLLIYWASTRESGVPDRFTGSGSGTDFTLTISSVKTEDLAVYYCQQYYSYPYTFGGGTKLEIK
B3: TM-74 (antibody, V domains shown)
VH: EVQLQQSGPELVKPGASVKMSCKASGYTFTSYVIHWVKQKPGQGLEWIGFINPNNDGTKYNEKFRGKATLTSDKSSSTAYMELSSLTSEDSAVYYCARPYYDYEGYTMDYGGQGTSVTVSS
VL: DVVMTQSQKFMSTSVEDRVSITCKASQNVRSAVAWYQQKPGQSPKALIYLASNRHTGVPDRFAGSGSGTDFTLTISSVQSEDLADYFCLQHWKYPFTFGSGTKLEIK
B4: TM-4 (antibody, V domains shown)
VH: EVQVQQSGPVLVKPGASVKMSCKASGYTFTDYYMNWVKQSHGKNLEWIGVINPYNGGTSYHQKFKGKATLTVDKSSSTAYMELNSLTSEDSAVYYCARAATVVAGFDYWGQGTTLTVSS
VL: QAVVTQESALTTSPGETVTLTCRSSTGAVTTSNYANWVQEKPDHLFTGLIGGTNNRAPGVPARFSGSLIGDKAALTITGAQTEDEAIYFCVLWYSNHLVFGGGTKLTVL
B5: TM-50 (antibody, V domains shown)
VH: QVQLKESGPVLVAPSQSLSITCTVSGFSLTNYGVHWVRQPPGKGLEWLGVIWAGGNTNYNSALMSRLSISKDNSKSQVFLKMNSLQTDDTAMYYCAKEAKLLRSYAMDYWGQGTLVTVSA
VL: DVQMTQTTSSLSASLGDRVTISCRASQDINNYLYWYQQKPDGTVKLLIYYTSMLHSGVPSRFSGSGSGTDYSLTISNLEQEDIATYFCQQGSTLMYTFGGGTKLEIK
B6: TM-47 (antibody, V domains shown)
VH: B5 VH with L115S, A120S
VL: DIVMTQSPSSLTVTAGEKVTMSCKSSQSLLNSGNQKNYLTWYQQKPGQPPKLLIYWASTRESGVPDRFTGSGSGTDFTLTISSVQAEDLAVYYCQNDYSYPLTFGAGTKLEIK
B7: TM-23 (antibody, V domains shown)
VH: QVQLQQSGAELIRPGTSVKVSCKASGYAFTNYLIEWVKKRPGQGLEWIGVINPGSGITNYNEKFKGKATLTADKSSSTAYMQLSSLTSEDSAVYFCARSDFITTVVADYWGQGTTVTVSS
VL: DIVVTQTPLSLPVSFGDQVSISCRSSQSLTNYYGNTYLSWYLHKPGQSPQLLIYGISNRFSGVPDRFSGSGSGTDFTLKISTIKPEDLGMYYCLQGTHQPRTFGGGTKLEIK
B8: TM-3 (antibody, V domains shown)
VH: QVTLKESGPGIVQPSQTLSLTCSFSGFSLNTLGRGVGWIRQPSGKGLEWLAKIWWNDDKFYYPALKSRLTISKDTSKNQIFLKIANVDTADSATYYCARIAGGTGAAYWGQGTTLTVSS
VL: DIVMTQAAFSNPVTLGTSASISCRSSKSLLHSNGITYLYWYLQKPGQSPQLLISQMSSLASGVPDRFSSGGSGTDFTLRISRVEAEDVGVFYCAQNLELPWTFGGGTKLELK
B9: TM-9 (antibody, V domains shown)
VH: EVQLVESGGDLVKPGGSLKLSCVASGFTFSGYGMSWVRQTPDKRLEWVATISSGSFYIYYPDSVKGRLTVSRDNAKNTLYLQMSSLKSEDTAIYYCARQNFYYGCEDYWGQGTTLTVSS
VL: B8 VL with S54Y, S58N, D65N, G70S, F91Y, L111I

Target: human TMEM106B (human, UniProt Q9NUM4 2-274)
Experiment: cell-based or functional assay
Also: test concentration or dose not given here.

Binder | % Protection from CPE [%]
B1 | 3.7
B2 | 3.5
B3 | 3.7
B4 | 3.7
B5 | 3.9
B6 | 3.8
B7 | 3.7
B8 | 97.2
B9 | 96.4
